Measured values from patent publication US20020137076.

Biological target: RNase A (UniProt P61823)
Assay: inhibition

UniProt P61823, sequence (P61823 27-150): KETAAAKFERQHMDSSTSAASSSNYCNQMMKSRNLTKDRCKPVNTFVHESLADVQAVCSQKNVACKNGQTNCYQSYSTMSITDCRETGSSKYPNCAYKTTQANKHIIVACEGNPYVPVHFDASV

polyG
Ki (2 ug/ml polyG, polyC substrate, 100 mM MES, 100 mM NaCl pH 6.0, non-competitive): 10 nM
Ki (20 ug/ml polyG, polyC substrate, 100 mM MES, 100 mM NaCl pH 6.0, non-competitive): 87.3 nM
Ki (Dixon, 40 mM Tris-HCl pH 7.9, 6 mM MgCl2, 10 mM NaCl, 2 mM spermidine): 40 nM
Ki (Dixon, 40 mM Tris-HCl pH 7.9, 6 mM MgCl2, 10 mM NaCl, no spermidine): 10 nM
